B1: synthetic lunasin (peptide)
peptide: SKWQHQQDSCRKQLQGVNLTPCEKHIMEKIQGRGDDDDDDDDD
notes: Made by peptide synthesis; It is the 43-residue published form of lunasin; also called synthetic lunasin created by peptide synthesis
B2: soybean-derived lunasin (lunasin purified from soybean white flake) (peptide)
peptide: SKWQHQQDSCRKQLQGVNLTPCEKHIMEKIQGRGDDDDDDDDDN
notes: Purified from soybean white flake and released from the lunasin-containing complex with a reducing agent; also called purified lunasin; highly purified soybean-derived lunasin

Tests used:
human histone 4 = human histone 4 (human, UniProt P62805 2-103); assay: in vitro histone binding assay, histone coated on plate, anti-lunasin polyclonal antibody + HRP secondary, A450
human histone 3.3 = human histone 3.3 (human, UniProt P84243 2-136); assay: as above

| Binder | binding result (human histone 4) | binding result (human histone 3.3) |
| --- | --- | --- |
| B1 | binds | binds |
| B2 | binds | binds |

— patent publication US20120220538A1 (UNIVERSITY OF LOUISVILLE RESEARCH FOUNDATION, published 2012)
